The values that follow come from patent publication US20230151079A1 (FUNDA O BUTANTAN, published 2023).

A word on the koff: it is the first-order rate constant of dissociation. One may read the kon as the rate constant with which the complex forms.

In test [1] the target is T1, thrombin (Homo sapiens (Human), UniProt P00734 315-363; P00734 364-622). Briefly: cell-based or functional assay.
For test [2], the target named is T1, thrombin. Briefly: calculated from kon and koff (equation 7).
Test [3] has as its target T1, thrombin. In words: enzyme kinetics, S-2238 hydrolysis by thrombin; Morrison tight binding equation.
The target of test [4] is T1, thrombin. In words: enzyme kinetics, S-2238 hydrolysis by thrombin; nonlinear regression for competing enzyme inhibition.
Test [5] deals with T1, thrombin. In words: progress curves of S-2238 hydrolysis by thrombin; kobs plotted against recombinant protein concentration.
In test [6] the target is T1, thrombin. In words: enzyme kinetics, S-2238 hydrolysis by thrombin 0.1 nM; apparent Km from Lineweaver-Burk plots against inhibitor concentration; competing inhibition.

B1: Recombinant protein (SEQ ID NO: 1), modified from sculptin of the tick Amblyomma cajennense (other)
chain: GKPQGHPHDALEARSDAVHTAVPKMPKGGHGGFEPIPIDYDERALEARSDAVHTAVPKMPKGGLGGFEPIPIDYDERALEARSDAVHTAVPKMPKGGHGGFEPIPIDYDERALEARSDAVHTAVPKMPKGGHGGFEPIPIDYDERALHALEHHHHHH
notes: Expressed in E. coli BL21(DE3) from pET28a, without signal peptide and with a C-terminal polyhistidine tail; Mass 16990.90 Da by MALDI-TOF; also called Scpt; preserved recombinant protein
Take B1: the “IC50 of thrombin inhibition (hydrolysis of S-2238 by thrombin 0.1 nM)” value with thrombin [1] is 0.0866 nM. Besides, the Ki is 0.0161 nM in the test with thrombin [2], 0.0195 nM with thrombin [3], 0.0181 nM with thrombin [4] and 0.0185 nM with thrombin [6]. In addition, the koff with thrombin [5] came out at 0.00065 s⁻¹. The kon with thrombin [5] turned out to be 4.04e+07 M⁻¹ s⁻¹.
Consider GKPQGHPHDALEARSDAVHTAVPKMPKGGHGGFEPIPIDYDERALEAR [Recombinant protein fragment of HPLC peak H1 generated by factor Xa (SEQ ID NO: 10)], for which the “thrombin inhibition activity retained, relative to non-hydrolyzed recombinant protein (S-2238 hydrolysis, thrombin 0.1 nM, fragment 100 pM)” value with thrombin [1] was ~50 % of preserved recombinant protein.
